Source: the DeepSol protein solubility set

test: soluble on expression in E. coli; label from the status in PepcDB or PDB records

Question: For “MERHGSELQGEVVFTTTSTANNNVKRAVEYFEDDNQDDALTSTSSGNSTQKESSPFTDFDDVPPPPVAPETPAPAQNRRESASPERQFLDESHLGGIGSPLSQSTRLDETFIEEYSIELDTSGNSRNNISSAASPGPKSPFDDDFTDTAAPVAPPPAPTKAAEEYRRQPHQNPFDEEEEEESQFGGGTLSGRDPFDEDSGNSNENQLREKKLHKKEQLAHRLSSSSEEIVEASIHEDEPIVMAQIPEEKPKPKAIPAFDNAYDADFDNSPPLHHYSAVHLETGLSPLEEAQRALRANRARHKPSNVSLAEEAKLAARQRYSNASDIRREEEEEVVEEDPAVVVPVLRKDLEVEEAPKSVRPPRYRKSREIEEPVVVDRFVEEEVDEKEDIDAIFEKYRKVRKDIFEKNGVENLKNLNFFRTSVSADPKSHTPILMADEYKEPQKQVPAPVVVAQESPILKRRNSLVPSRISGRQSTRRSVTSVRSMRGKRKTRAIPEFFDLTRHQNIRLRAPATKKKRISLHRVEDTEAVVELLNGQKVEVACRSDVISRDVFSLIVQNMNINEHVFFGLSFLRDGEHYFIEDHQRLEKFAPSGWKSVARVGVKVPYVLHLRFKFYPQILDFIKTDVTMNELYLQCRRDVLEERIQPKRDAAFELAALALQAEFGNRPPPVITDYFDIQHYLPKKYSSFEDQSRLKNILAELHGHYAGTRISEAKHKYIQICQRHPDFGAHVHRVFRTKPTSAHGASPFDPDTGSSLWIGIMPRGISIYEQQGGAREVIAEHVWPQTQTLQFDKKRFVIVAVGAHDEQIESTFYTDHHSKSSYFVRFAASQHRWMMKMRQWKSTLRHENTIQAMPDVIVEGQTIPPAPIRQGLEESPPSTPLLASADQIFAKMSVSQEKPAANRPAELPPPAPSSKFAAQYDTVDEGIVCDSQAENFERVDSTDNGNVTPRGMQFDILLVKDPANGLGLTLVDGNLNGVPGVYVKLVADNGAGMKAIKPKWDILTPCDSTQIFASQNQIFPSVSAEMLASAGRKKSFTSSSGDLLNAPNRTNGQSRTPPAPRKAANRRQRAVSDFGAIGDALPTLDGDNLINIKAISGLHLDESDEEKGEYRLPTTSMYAFDRDDDLQASIKESKKPAPEPKSGELRKYRYARRSNLEIAEEIEEEAVESSDDDGQIDEGKRVIDVELDRNENGSLGVQIASLSGRVCIKQLTSEPAISHPDIRVGDVLLYVNGIAVEGKVHQEVVAMLRGGGDRVVLGVQRPPPAYSDQHHASSTSASAPLISVMLLKKPMATLGLSLAKRTMSDGIFIRNIAQDSAASSEGTLRVGDRLVSLDGEPVDGFTPATILEKLKLVQGPVQITVTREQTA”, which “soluble on expression in E. coli” value is on record?
Answer: Its value is “not soluble”.

Question: Which “soluble on expression in E. coli” value does the source give for “MERIETIPTDKEHLSQDEVIRLASTPCSAPALKRAFLFSCLTALRKSDIKKLTWEEIQPYGSDGVMYVTTRMQKTKDIVHNPISEEALELIGYSPDKRGKVFPDFKDSMTQAPLKNWLKDAGITKHISYHCSRHSFACLQLDAGTSIAVVQRYLGHKNVATTEVYAKISDAQKRASVGLEHHHHHH” here?
Answer: Its value is “soluble”.

Question: For “MERKINRREKEKEYEGKHNSLEDTDQGKNCKSTLMTLNVGGYLYITQKQTLTKYPDTFLEGIVNGKILCPFDADGHYFIDRDGLLFRHVLNFLRNGELLLPEGFRENQLLAQEAEFFQLKGLAEEVKSRWEKEQLTPRETTFLEITDNHDRSQGLRIFCNAPDFISKIKSRIVLVSKSRLDGFPEEFSISSNIIRFKYFIKSENGTRLVLKEDNTFVCTLETLKFEAIMMALKCGFRLLTSLDCSKGSIVHSDALHFIK”, which “soluble on expression in E. coli” value is on record?
Answer: Its value is “soluble”.

Question: With “MERNDIINFKALEKELQAALTADEKYKRENAAKLRAVEQRVASYEEFRGIVLASHLKPLERKDKMGGKRTVPWNCHTIQGRTFQDVATEISPEKAPLQPETSADFYRDWRRHLPSGPERYQALLQLGGPRLGCLFQTDVGFGLLGELLVALADHVGPADRAAVLGILCSLASTGRFTLNLSLLSRAERESCKGLFQKLQAMGNPRSVKEGLSWEEQGLEEQSGGLQEEERLLQELLELYQVD” as the sequence, how does the “soluble on expression in E. coli” value read?
Answer: Its value is “soluble”.

Question: Which “soluble on expression in E. coli” value does the source give for “MERTGFLEYVLNYVKKGVELGGFPEDFYKILSRPRRVLIVNIPVRLDGGGFEVFEGYRVQHCDVLGPYKGGVRFHPEVTLADDVALAILMTLKNSLAGLPYGGAKGAVRVDPKKLSQRELEELSRGYARAIAPLIGDVVDIPAPDVGTNAQIMAWMVDEYSKIKGYNVPGVFTSKPPELWGNPVREYATGFGVAVATREMAKKLWGGIEGKTVAIQGMGNVGRWTAYWLEKMGAKVIAVSDINGVAYRKEGLNVELIQKNKGLTGPALVELFTTKDNAEFVKNPDAIFKLDVDIFVPAAIENVIRGDNAGLVKARLVVEGANGPTTPEAERILYERGVVVVPDILANAGGVIMSYLEWVENLQWYIWDEEETRKRLENIMVNNVERVYKRWQREKGWTMRDAAIVTALERIYNAMKIRGWI” here?
Answer: Its value is “soluble”.

Question: Which “soluble on expression in E. coli” value does the source give for “MESGKMAPPKNAPRDALVMAQILKDMGITEYEPRVINQMLEFAFRYVTTILDDAKIYSSHAKKPNVDADDVRLAIQCRADQSFTSPPPRDFLLDIARQKNQTPLPLIKPYAGPRLPPDRYCLTAPNYRLKSLIKKGPNQGRLVPRLSVGAVSSKPTTPTIATPQTVSVPNKVATPMSVTSQRFTVQIPPSQSTPVKPVPATTAVQNVLINPSMIGPKNILITTNMVSSQNTANEANPLKRKHEDDDDNDIM” here?
Answer: Its value is “soluble”.

Question: Which “soluble on expression in E. coli” value does the source give for “MESKQPEDIHQDCELKQDELISKLQHSQQNFDNIKKILANFEKENENLADENEILKTRIASLEKDVKQEKNATKMAKSLNEETINELTLSEDLIESLKKQFQASKIELKEEILSKNKVEKDYSNDKRYFLEREQYLLITMESMESGKLEHEQQTEIMNKDVEELKIRVKELEATDLSEKNIELERQVGKLTAQLQDFESSRGYEQELILSQLEVQKRKLDKQLIDLQSKLERNPELVEFDKLHEELQTERMNMPVQVCYVHVSFIHKDIENLIYRKMNNNK” here?
Answer: The value was “not soluble”.

Question: With “MESLNEYMDKIINRLKAVNEKDELVDEGMRKLQKCQEKIMKTRIDAQKHIDERHEQQSFEQQLLNKNMFETEQLEEKLKRLDDENKIGNEREFNKKLEAISAKWTDDVNLLKTTPNEPNDGNRKKLSNLSNILV” as the sequence, how does the “soluble on expression in E. coli” value read?
Answer: Its value is “not soluble”.

Question: For “MESPNMNQPKINSTAGCALPPPNEMILKWAAERPNEVYLKQIINRQFVEFTYAEVADQALKLVSALRGLGIQPGDKVALVSKNCAE”, which “soluble on expression in E. coli” value is on record?
Answer: Its value is “not soluble”.

Question: Which “soluble on expression in E. coli” value does the source give for “MESSTDGQVVPQEVLNLPLEKYHEEADDYLDHLLDSLEELSEAHPDCIPDVELSHGVMTLEIPAFGTYVINKQPPNKQIWLASPLSGPNRFDLLNGEWVSLRNGTKLTDILTEEVEKAISKSQ” here?
Answer: The value was “soluble”.

Question: For “METFDVVVIGAGAAGMMCAIEAGKRGRSVLVIDHAKAPGEKIRISGGGRCNFTNTGASIHNFLSANPKFALSALRRYRPRDFIALVERYGIAYHEKTLGQLFCDGSAKQIITMLLTEMKAAGVTLRLETSVESVAKAVSGFEVSLSSGKVACASLVVASGGKSIPKMGATGLGYDIAKQFGLNIIETRPALVPLTFEAGMLARLTPLSGVALDAVVGHGKTKFQEGMLFTHRGLSGPSILQISSYWREGDEIRVDMAPGVDALAALKTARTATPRQAVATVLATLLPKRVAQVIAEEEAPDKGNIADCSDKVLGRLASAVNAWTFKPVGSEGYRTAEVTLGGVDTEALDSRTLEAKAVPGLFFIGEVVDVTGWLGGYNFQWAWASGWSAGQSV”, which “soluble on expression in E. coli” value is on record?
Answer: The value was “soluble”.

Question: For “METFKDRLVFLWKSEARQAKIASDIEMTIAGFSRIWNEGGLPKSETLKKIKQLKGCSIDWLLTGEGNPFPDEAPKKSLAYDTLGNEVDTDEFVFVPRYDIRAAAGYGQFVDHEEPVFTMAFRRHWIENYVTRDTKNLSVISVKGDSMEGVLNDGDSILVNHGENTPRDGLYVLRINENLLVKRLQIVPGGIINVISANEAYPAFEINLNDLTDDVEIIGRVEWFGRTI”, which “soluble on expression in E. coli” value is on record?
Answer: The value was “not soluble”.

Question: For “METGGGAPLTKSSEAVEGDFVEDRLRGNEAFRRGNYEAAASYYSEALEKIRLAKTELPTQDRYPWSLEEVLIRCNRALVFLRLASAAALPNVGSNRFEEDACTAEHESEEATPCSLWQRAAEDASVALDLITDFEDEGESERVTELRVKALYRRMVANKGQNNFADAAKDAEALAKIRPEYRSEAELLAQRAAAESERAKQEALQKLKEVGNSFLSLFGVSIDNFQTKRNPDGTYSVSYCPKS”, which “soluble on expression in E. coli” value is on record?
Answer: The value was “not soluble”.

Question: For “METIVQKFGGTSVGSVERIQHVANLIIEEYERGHSIVSVVSAMGKSTDELVALANAITENPSKREMDMLLSTGEQVTISLLTMALQAKGYHAISLTGWQAGITTESVHSSARITDIHTDRIQSYLAEGTIVIVAGFQGVSEDFEITTLGRGGSDTTAVALAAALKAKKCDIYTDVTGVYTTDPRVVKDAYKLDEISYDEMLELANLGAGVLHPRAVEFAKNHNVVLEVRSSMEQENGTIVKGECNMEQQSIVKGIAFEDNITRVTIKGLEQGSLSTVFSTLAAAHINVDIIIQSITNEGTVHLSFSIHSNDLRETLEVLEQNQEALHYEAVEYENHLAKVSIVGSGMVSNPGVAANMFTTLKEEDIHIKMVSTSEIKVSVVIDRLHLVTGVEALHQSFMAKIEPFVQMS”, which “soluble on expression in E. coli” value is on record?
Answer: Its value is “not soluble”.

Question: For “METKDLIVIGGGINGAGIAADAAGRGLSVLMLEAQDLACATSSASSKLIHGGLRYLEHYEFRLVSEALAEREVLLKMAPHIAFPMRFRLPHRPHLRPAWMIRIGLFMYDHLGKRTSLPGSTGVRFGADSVLKPEIVRGFEYSDCWVDDARLVLANAQMVVRKGGEVLTRTRATAARRENGLWIVEAEDIDTGKKYVWQARGLVNATGPWVKQFFDEGMHLPSPYGIRLIKGSHIVVPRVHNQKQAYILQNEDKRIVFVIPWMEEFSIIGTTDVEYKGDPKAVKIEESEINYLLKVYNAHFQKQLGRDDIVWTYSGVRPLCDDESDSPQAITRDYTLDIHDENGKAPLLSVFGGKLTTYRKLAEHAMEKLASYYPGIGPAWTKTCVLPGGDIDGSREDYAAKLRRRYPFLTESLARHYSRTYGSNTEWILGEATSLLDLGEDFGHEFYEAELKYLVDHEWVRRTEDAIWRRTKEGMWLTAEQQSRITQWLAAYVEKHQLSMASLEHHHHHH”, which “soluble on expression in E. coli” value is on record?
Answer: The value was “soluble”.

Question: Which “soluble on expression in E. coli” value does the source give for “METKKTLREGYTTGSCATVATKAALTALITGQVQAEATIRLPIGRVVTFSLASCSFDGETATASVVKDGGDDPDATHGALIVSTVSWTSSPGVHIDGGEGVGRVTKPGLPVPVGEAAINPVPRQMIREAVNEVLAQYGLHRGVKVVISVPGGEEIAKKTLNPRLGIIGGISILGTRGIVVPFSTAAYRASIVQALQVAKANGCRHVVITTGGRSEKYAMQEYPHLPEEAFIEMGDFVGFTLKQCKRLGIKMVSMVGMMGKFSKVAQGVMMVHSKSAPVDFGFLAAIAEQAGACPELVAAVRGANTAAQVGDMMQEAGCTKFFELLCEACCQAALHEVGGGLTVATSIYTMNGQRLGKAVQTDGDDEVDRCRC” here?
Answer: Its value is “not soluble”.

Question: For “METPQTGYQVKTYNVPVKRYCQTLDLRDSPELIAEYRKRHSQAEVWPEILAGIREVGILEMEIYILGTRLFMIVETPVDFDWDTAMARLNTLPRQQEWEEYMSILQQAAPGMSSAEKWIPMERMFHLYNT”, which “soluble on expression in E. coli” value is on record?
Answer: The value was “not soluble”.

Question: Which “soluble on expression in E. coli” value does the source give for “METRTYAIGVEATMDVIGGKWKPIILCNLRHGAMRPSDLKRGITGISQKMLTQQLRELEEDNIIERKVYNQVPPKVEYYLSDYGQSLSAVLDNLCNWGESHVAHLQEQGQEIYLKCED” here?
Answer: Its value is “not soluble”.
